Experimental data: paper PMC10511320, “R-loop-dependent promoter-proximal termination ensures genome stability”

Columns and labels:
SSB1 S172P/H173L = SSB1 S172P/H173L (human, UniProt Q9BQ15 1-211, S172P;H173L); assay: EMSA; retains ssDNA binding; EMSA: 100 nM Cy3 probe, 20 mM Tris-HCl pH 7.5, 50 mM NaCl, 5 mM MgCl2, 0.2 mM EDTA, 1 mM DTT, on ice 30 min; 6% native PAGE, 0.5x TBE, cold room; settings: protein: recombinant; label: 3' Cy3
SSB1 R206Q = SSB1 R206Q (human, UniProt Q9BQ15 1-211, R206Q); assay: as above; settings: protein: recombinant; label: 3' Cy3
[1] = biological target: SSB1;INTAC complex (Integrator-PP2A) (human;human, UniProt Q9BQ15;Q8N201;Q9H0H0;Q68E01;Q96HW7;Q6P9B9;Q9UL03;Q9NVH2;Q75QN2;Q9NV88;Q9NVR2;Q5T …, |); assay: EMSA; supershift versus SSB1 alone; EMSA: 100 nM Cy3 probe, 20 mM Tris-HCl pH 7.5, 50 mM NaCl, 5 mM MgCl2, 0.2 mM EDTA, 1 mM DTT, on ice 30 min; 6% native PAGE, 0.5x TBE, cold room; settings: protein: recombinant;recombinant; on-column cleavage; copies: 1;1;1;1;1;1;1;1;1;1;1;1;1;1;1;1;1; label: 3' Cy3

Measured: binding result

Chain of SSB1 S172P/H173L (Q9BQ15 whole entry S172P/H173L): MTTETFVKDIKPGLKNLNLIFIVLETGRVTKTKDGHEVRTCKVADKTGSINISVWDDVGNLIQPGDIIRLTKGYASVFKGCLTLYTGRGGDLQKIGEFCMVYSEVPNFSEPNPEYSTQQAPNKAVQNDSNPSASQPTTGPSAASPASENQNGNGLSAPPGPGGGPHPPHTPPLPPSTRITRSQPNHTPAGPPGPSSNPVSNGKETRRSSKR
Chain of SSB1 R206Q (Q9BQ15 whole entry R206Q): as the sequence (Q9BQ15 whole entry S172P/H173L) above, with P172S, L173H, R206Q counted along it

TTTTTTTTTTTTTTTTTTTTTTTTTTTTTTTTTTTTTTTTTTTTTTTT (ssDNA) [oligo (dT)48]
binds: all assays above
